Measured values reported in patent US20100075374A1, “Methods for capturing nascent proteins” (AMBERGEN, INC., priority 2007, published 2010).

Tests used:
[1] = molecular target: T1, human recombinant Src pp^60 tyrosine kinase (Homo sapiens, UniProt P12931); test: kinase substrate profiling on photo-transferred proteins, phosphotyrosine detection; assay type: biochemical; conditions: plus ATP kinase reaction, 30 min at 37° C.
T1 construct: purchased Invitrogen Corporation

[2] = molecular target: T2, human recombinant ZAP-70 tyrosine kinase (Homo sapiens, UniProt P43403); test: as above; assay type: biochemical; conditions: plus ATP kinase reaction, 30 min at 37° C.
T2 construct: purchased Invitrogen Corporation
T2 sequence (P43403 1-619): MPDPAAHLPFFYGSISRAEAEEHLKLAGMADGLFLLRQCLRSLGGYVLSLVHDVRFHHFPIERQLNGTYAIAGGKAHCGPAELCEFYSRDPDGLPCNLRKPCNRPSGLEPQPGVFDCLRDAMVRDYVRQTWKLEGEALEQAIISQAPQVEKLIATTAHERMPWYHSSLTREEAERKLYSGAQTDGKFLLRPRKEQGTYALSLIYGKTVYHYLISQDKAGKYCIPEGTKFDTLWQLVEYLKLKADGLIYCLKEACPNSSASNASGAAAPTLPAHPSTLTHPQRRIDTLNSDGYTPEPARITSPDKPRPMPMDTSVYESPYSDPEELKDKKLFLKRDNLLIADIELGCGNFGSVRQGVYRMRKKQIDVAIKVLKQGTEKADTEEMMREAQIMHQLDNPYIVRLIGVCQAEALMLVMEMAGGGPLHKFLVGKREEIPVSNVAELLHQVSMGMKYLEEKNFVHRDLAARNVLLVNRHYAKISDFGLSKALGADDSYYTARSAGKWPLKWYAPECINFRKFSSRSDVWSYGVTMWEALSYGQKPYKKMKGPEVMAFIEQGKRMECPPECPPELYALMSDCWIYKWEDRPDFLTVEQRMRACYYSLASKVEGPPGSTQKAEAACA

MDM2 bait = molecular target: T3, MDM2 bait (Homo sapiens, UniProt Q00987); test: p53-MDM interaction assay, pre-formed complexes of cell-free expressed proteins, contact photo-transfer; assay type: binding; conditions: complexes formed before contact photo-transfer
T3 construct: made in house; host or cells: rabbit reticulocyte lysate, coupled cell-free transcription/translation
Procedure: BODIPY-FL-tRNA^COMPLETE was used for fluorescence labeling (at 2 μM) instead of BODIPY-FL-tRNA^Lys. The cell-free expressed p53 “probe” was labeled only with BODIPY-FL using the BODIPY-FL-tRNA^COMPLETE and was not labeled with PC-biotin in any way. […] The “bait” proteins were labeled only with PC-Biotin-tRNA^COMPLETE (at 1 μM) and not with BODIPY-FL in any way. The Translation Dilution Buffer (TDB) used to stop the reaction and prepare the sample contained no BSA or other protein carrier, 10 mM DTT instead of 2 mM and additionally contained 20 mM EDTA added from a 500 mM pH 8.0 stock and 4 mM cycloheximide (Sigma-Aldrich, St. Louis, Mo.) added from a 355 mM stock in DMSO.
All steps were performed at +4° C. or on an ice water bath and all reagents and samples were also kept under these conditions during the procedure. […] To facilitate addition of small bead volumes to the samples, the beads were initially prepared to a 10% (v/v) bead suspension with 5 mM DTT in PBS. The samples, now 80 μL each, were then mixed with 10 μL of the 10% (v/v) bead suspension corresponding to addition of 1 μL packed bead volume. After capture on the NeutrAvidin beads for 1 hr, beads were washed by mixing 3× briefly (briefly=5 sec vortex mix) in 400 bead volumes per wash of PBS pH 7.5 and 5 mM DTT. […]

PKCα = molecular target: T4, PKCα (Homo sapiens, UniProt P17252); test: PMA mediated PKCα sub-cellular translocation measured by kinase activity after photocleavable antibody isolation; assay type: cell-based; conditions: HeLa cells, 200 nM PMA for 5 min, n=4
T4 construct: isolate and photo-release endogenous PKCa from the undiluted detergent fractionated HeLa cell extracts; endogenous in cells; host or cells: HeLa cells (ATCC)
Procedure: Cultured HeLa cells (ATCC; Manassas, Va.) were stimulated for 5 min with 200 nM Phorbol-12-Myristate-13-Acetate (PMA; EMD Biosciences, Inc., San Diego, Calif.) and subsequently detergent fractionated into sub-cellular compartments according to reported procedures [Ramsby et al. (1994) Electrophoresis 15, 265-277; Ramsby & Makowski. (1999) Methods Mol Biol 112, 53-66; Chiang et al. (2000) J Biochem Biophys Methods 46, 53-68]. PMA is a potent activator of PKCα and is well known to cause translocation of the kinase from the cytosolic to the membrane sub-cellular compartments [Ross & Joyner. (1997) Endothelium 5, 321-332; Bazan & Rapoport. (1996) JPharmacol Toxicol Methods 36, 87-95; Yazlovitskaya & Melnykovych. (1995) Cancer Lett 88, 179-183].
A photocleavable antibody conjugated solid affinity matrix was prepared and used to isolate and photo-release the antigen into solution essentially as described in Example 2 except that in this case, a photocleavable anti-IgG secondary antibody was used to immobilize the unlabeled primary antibody onto the solid affinity matrix. This antibody affinity matrix was used to isolate and photo-release endogenous PKCa from the undiluted detergent fractionated HeLa cell extracts. […]

T3 sequence (Q00987 whole entry): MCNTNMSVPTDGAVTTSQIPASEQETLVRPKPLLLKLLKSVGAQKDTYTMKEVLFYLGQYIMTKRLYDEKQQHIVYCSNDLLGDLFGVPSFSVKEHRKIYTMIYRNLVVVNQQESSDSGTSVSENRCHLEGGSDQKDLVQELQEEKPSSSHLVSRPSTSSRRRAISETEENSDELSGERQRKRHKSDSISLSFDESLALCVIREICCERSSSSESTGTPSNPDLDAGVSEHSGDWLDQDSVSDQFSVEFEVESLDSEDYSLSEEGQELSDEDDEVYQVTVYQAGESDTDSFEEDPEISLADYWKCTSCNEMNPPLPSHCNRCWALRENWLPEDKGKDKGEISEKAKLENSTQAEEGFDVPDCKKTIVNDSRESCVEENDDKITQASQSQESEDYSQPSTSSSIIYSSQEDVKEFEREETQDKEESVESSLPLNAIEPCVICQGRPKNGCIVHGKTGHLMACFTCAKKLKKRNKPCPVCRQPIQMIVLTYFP

## CK: cell-free expressed human casein kinase II, contact photo-transferred to microarray
[1]
  phosphorylation by Src pp^60: significant phosphorylation
[2]
  phosphorylation by ZAP-70: does not phosphorylate

## p53 “probe”: cell-free expressed human p53 labeled only with BODIPY-FL using BODIPY-FL-tRNA COMPLETE
MDM2 bait
  binding of cell-free expressed p53 probe to MDM bait: selective binding

## CCCCCCCCCCCCCC(=O)O[C@@H]1[C@@H](C)[C@@]2(O)[C@@H](C=C(CO)C[C@]3(O)C(=O)C(C)=C[C@@H]23)[C@@H]2C(C)(C)[C@]12OC(C)=O [PMA, Phorbol-12-Myristate-13-Acetate]
PKCα; baseline 21±2% membrane
  PKCα distribution, membrane, based on kinase activity: 84±3%
PKCα; baseline 79±7% cytosol
  PKCα distribution, cytosol, based on kinase activity: 16±4%
